Reference: patent publication US7745575B1 (Cellpep Pharma Inc., priority 2004, dated 2010)
Bridge positions count the residues as written; N and C are the ends. Ends that are not written are not given here. Peptide text beside a SMILES is read from it.

T1: hKv3.2 (Homo sapiens, UniProt Q96PR1)
T1 sequence (Q96PR1 1-638): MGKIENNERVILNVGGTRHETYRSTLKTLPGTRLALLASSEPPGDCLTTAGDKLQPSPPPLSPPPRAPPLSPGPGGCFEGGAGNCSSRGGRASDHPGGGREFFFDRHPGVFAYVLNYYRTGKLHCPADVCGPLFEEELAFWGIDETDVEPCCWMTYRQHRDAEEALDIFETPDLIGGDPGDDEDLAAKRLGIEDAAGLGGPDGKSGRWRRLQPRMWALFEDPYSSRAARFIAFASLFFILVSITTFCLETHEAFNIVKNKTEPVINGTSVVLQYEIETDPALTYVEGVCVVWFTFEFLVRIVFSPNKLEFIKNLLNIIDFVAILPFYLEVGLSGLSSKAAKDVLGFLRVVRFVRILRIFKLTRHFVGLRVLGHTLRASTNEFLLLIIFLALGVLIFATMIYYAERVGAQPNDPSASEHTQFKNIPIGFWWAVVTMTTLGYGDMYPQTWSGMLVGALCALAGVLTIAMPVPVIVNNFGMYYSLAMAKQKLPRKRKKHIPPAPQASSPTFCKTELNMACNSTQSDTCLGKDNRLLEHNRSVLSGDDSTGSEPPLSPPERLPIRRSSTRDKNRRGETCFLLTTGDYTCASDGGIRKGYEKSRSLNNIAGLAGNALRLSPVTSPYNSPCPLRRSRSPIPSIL

T2: hKv3.2 (human (only by the printed prefix h), UniProt Q96PR1)
T2 sequence: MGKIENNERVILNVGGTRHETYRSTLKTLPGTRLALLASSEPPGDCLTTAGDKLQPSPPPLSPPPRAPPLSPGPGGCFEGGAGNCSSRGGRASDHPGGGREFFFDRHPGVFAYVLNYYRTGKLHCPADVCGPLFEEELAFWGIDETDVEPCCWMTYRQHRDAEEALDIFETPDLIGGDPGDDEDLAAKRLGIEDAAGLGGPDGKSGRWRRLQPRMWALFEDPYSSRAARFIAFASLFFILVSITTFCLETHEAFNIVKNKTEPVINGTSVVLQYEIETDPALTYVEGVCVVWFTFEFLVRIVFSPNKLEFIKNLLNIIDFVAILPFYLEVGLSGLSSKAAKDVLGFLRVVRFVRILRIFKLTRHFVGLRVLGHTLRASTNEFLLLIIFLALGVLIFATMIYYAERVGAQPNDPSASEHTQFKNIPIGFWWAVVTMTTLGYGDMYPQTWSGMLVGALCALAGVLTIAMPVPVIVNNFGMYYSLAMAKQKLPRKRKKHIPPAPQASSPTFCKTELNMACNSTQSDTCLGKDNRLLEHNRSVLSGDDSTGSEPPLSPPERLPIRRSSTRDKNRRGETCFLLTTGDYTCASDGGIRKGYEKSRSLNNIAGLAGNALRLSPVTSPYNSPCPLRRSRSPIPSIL


Tests used:
[1] = target: hIK1 (KCa3.1) (Homo sapiens, UniProt O15554); assay: patch-clamp whole-cell recording, Ca2+-activated K+ current block; format: cell-based
Sequence of hIK1 (KCa3.1) (O15554 whole entry, the tested form may be a part): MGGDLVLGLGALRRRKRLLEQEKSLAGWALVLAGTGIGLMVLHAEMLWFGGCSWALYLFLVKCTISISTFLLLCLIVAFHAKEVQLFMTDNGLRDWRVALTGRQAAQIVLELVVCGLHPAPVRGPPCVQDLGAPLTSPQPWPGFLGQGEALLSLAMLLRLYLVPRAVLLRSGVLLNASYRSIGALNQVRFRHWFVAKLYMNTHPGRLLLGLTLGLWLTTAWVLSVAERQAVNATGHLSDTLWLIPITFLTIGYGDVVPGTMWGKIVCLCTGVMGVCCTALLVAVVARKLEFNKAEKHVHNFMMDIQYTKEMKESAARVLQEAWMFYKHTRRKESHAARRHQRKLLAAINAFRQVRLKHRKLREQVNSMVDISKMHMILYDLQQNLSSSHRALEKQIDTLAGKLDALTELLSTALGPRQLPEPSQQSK
Method: (§1) Electrophysiological experiments were carried out at 22-24° C. using the patch-clamp whole-cell recording mode. Cells were bathed with mammalian Ringer's solution (in mM): 160 NaCl, 4.5 KCl, 2 CaCl2, 1 MgCl2, and 10 HEPES (pH 7.4 with NaOH), with an osmolarity of 290-320 mOsm. […] A syringe-driven perfusion device was used to exchange the external recording bath solution. Two internal pipette solutions were used, one for measuring voltage-gated K^+ currents that contained (in mM): 155 KF, 2 MgCl2, 10 HEPES, and 10 EGTA (pH 7.2 with KOH), with an osmolarity of 290-320 mOsm and another for measuring Ca^2+-activated K^+ currents that contained (in mM): 135 K-aspartate, 8.7 CaCl2, 2 MgCl2, 10 EGTA, 10 HEPES (pH 7.2 with KOH), with an osmolarity of 290-320 mOsm. A free [Ca^2+]i of 1 μM was calculated. All currents through voltage-gated K^+ channels were elicited by 200 ms depolarising voltage steps from −80 to +40 mV. Potassium currents through KCa1.1, KCa2.1 and KCa3.1 were elicited by 1 μM internal [Ca^2+]i and 400 ms voltage ramps from −120 to 0 mV (for KCa3.1 channel and KCa1.1 channel) and from −120 to +40 mV (for KCa2.1 channel). Electrodes were pulled from glass capillaries (Science Products, Germany), and fire-polished to resistances of 2.5-5 MΩ. Membrane currents were measured with an EPC-9 or EPC-10 patch-clamp amplifier (HEKA Elektronik, Lambrecht, Germany) interfaced to a Macintosh computer running acquisition and analysis software (Pulse and PulseFit). When voltage-gated K^+ currents were measured, the capacitive and leak currents were subtracted using a P/10 procedure. Series resistance compensation (>80%) was used for currents above 2 nA. The holding potential was −80 mV in all experiments.

[2] = toxicity in vivo, LD50 after intracerebroventricular injection; conditions: mouse, icv or intrathecal, 20 g C57/BL6 mice
Method: Groups of six to eight mice per dose were injected with 5 μl peptide solution containing 0.1% (w/v) bovine serum albumin and 0.9% (w/v) NaCl. The LD50 values are set out in Table 5.

[3] = target: mKv1.3 (Mus musculus, UniProt P16390); assay: patch-clamp whole-cell recording, K+ current block; format: cell-based
Sequence of mKv1.3 (Mus musculus, UniProt P16390) (P16390 whole entry): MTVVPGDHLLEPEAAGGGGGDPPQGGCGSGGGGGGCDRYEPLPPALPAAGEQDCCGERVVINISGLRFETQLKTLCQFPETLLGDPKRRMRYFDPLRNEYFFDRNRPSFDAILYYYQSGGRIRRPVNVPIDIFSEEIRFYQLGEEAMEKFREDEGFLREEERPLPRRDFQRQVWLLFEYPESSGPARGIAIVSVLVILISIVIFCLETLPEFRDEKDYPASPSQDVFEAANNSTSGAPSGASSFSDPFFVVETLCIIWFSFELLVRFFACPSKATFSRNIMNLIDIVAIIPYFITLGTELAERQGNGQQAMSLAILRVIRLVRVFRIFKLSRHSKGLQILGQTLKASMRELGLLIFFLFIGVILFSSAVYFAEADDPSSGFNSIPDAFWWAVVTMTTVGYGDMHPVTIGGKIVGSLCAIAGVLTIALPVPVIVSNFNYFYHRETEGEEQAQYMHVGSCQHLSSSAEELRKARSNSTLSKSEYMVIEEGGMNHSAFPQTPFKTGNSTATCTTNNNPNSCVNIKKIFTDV
Method: as §1

[4] = target: mKv1.1 (Mus musculus, UniProt P16388); assay: patch-clamp whole-cell recording, K+ current block; format: cell-based
Sequence of mKv1.1 (Mus musculus, UniProt P16388) (P16388 whole entry): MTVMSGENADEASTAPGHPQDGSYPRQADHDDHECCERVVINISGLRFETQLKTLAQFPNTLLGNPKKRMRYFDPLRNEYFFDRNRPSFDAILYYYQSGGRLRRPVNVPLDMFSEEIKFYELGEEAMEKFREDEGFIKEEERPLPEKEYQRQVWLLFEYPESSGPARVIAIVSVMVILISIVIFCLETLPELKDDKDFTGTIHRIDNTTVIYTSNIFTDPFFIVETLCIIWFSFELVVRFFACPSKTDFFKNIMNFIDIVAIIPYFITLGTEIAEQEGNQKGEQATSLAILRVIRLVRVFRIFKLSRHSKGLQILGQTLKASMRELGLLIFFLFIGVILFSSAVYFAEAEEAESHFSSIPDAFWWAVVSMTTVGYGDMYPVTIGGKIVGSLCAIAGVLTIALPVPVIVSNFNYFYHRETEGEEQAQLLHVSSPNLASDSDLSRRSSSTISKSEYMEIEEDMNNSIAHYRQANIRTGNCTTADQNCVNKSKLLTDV
Method: as §1

[5] = target: hKv3.2 (human (only by the printed prefix h)) (UniProt Q96PR1)
[6] = target: mKv1.3 (mouse (only by the printed prefix m)) (UniProt P16390)
[7] = target: mKv1.1 (mouse (only by the printed prefix m)) (UniProt P16388)
[8] = target: hKv1.2 (human (only by the printed prefix h)) (UniProt P16389)
[9] = target: hIK1 (human (only by the printed prefix h)) (UniProt O15554)
[10] = target: T1, hKv3.2; assay: patch-clamp whole-cell recording, K+ current block; format: cell-based
Method: as §1

[11] = target: hKv1.2 (human (only by the printed prefix h), UniProt P16389); assay: cell-based or functional assay
[12] = target: T2, hKv3.2; assay: cell-based or functional assay
[13] = target: hIK1 (human (only by the printed prefix h), UniProt O15554); assay: cell-based or functional assay
[14] = target: mKv1.3 (mouse (only by the printed prefix m), UniProt P16390); assay: cell-based or functional assay
[15] = target: mKv1.1 (mouse (only by the printed prefix m), UniProt P16388); assay: cell-based or functional assay

| Molecule | LD50 [2] | IC50 [10] | ID50 [11] | ID50 [13] | ID50 [14] | ID50 [15] | other results |
| --- | --- | --- | --- | --- | --- | --- | --- |
| CC[C@H](C)[C@@H]1NC(=O)[C@H](CCCCN)NC(=O)[C@@H](NC(=O)[C@H](CCCCN)NC(=O)[C@@H](NC(=O)[C@H](CC(N)=O)NC(=O)[C@@H](NC(=O)[C@@H](NC(=O)[C@@H](NC(=O)CN)C(C)C)[C@@H](C)CC)[C@@H](C)CC)C(C)C)CSSC[C@@H]2NC(=O)[C@H](CCCCN)NC(=O)CNC(=O)[C@H](Cc3ccccc3)NC(=O)[C@H](CCCNC(=N)N)NC(=O)[C@H](CCSC)NC(=O)CNC(=O)[C@H](C)NC(=O)[C@H](CC(=O)O)NC(=O)[C@H](CCCCN)NC(=O)[C@@H]3CSSC[C@@H](C(=O)N[C@H](C(=O)N4CCC[C@H]4C(=O)N[C@@H](CCCCN)C(N)=O)[C@@H](C)O)NC(=O)[C@H](Cc4c[nH]cn4)NC(=O)[C@H](CSSC[C@H](NC(=O)[C@H](CCC(N)=O)NC(=O)[C@H](CCCNC(=N)N)NC(=O)[C@H](CO)NC1=O)C(=O)N[C@@H](CC(C)C)C(=O)N[C@@H](CCCCN)C(=O)N1CCC[C@H]1C(=O)N3)NC(=O)[C@H](CCCCN)NC(=O)CNC(=O)[C@H](CC(N)=O)NC(=O)[C@H](CCSC)NC2=O (H-GVIINVKCKISRQCLKPCKDAGMRFGKCMNGKCHCTPK-NH2; disulfide 8-28, 14-33, 18-35) | 2.25 µg/kg | – | – | – | – | – | IC50 [1]: > 1000 nM; IC50 [3]: 0.075 ± 0.006 nM; IC50 [4]: 0.36 ± 0.04 nM |
| [A^34]-OsK1 (peptide) | – | – | – | – | – | – | ID50 [5]: > 1000 nM; ID50 [6]: 0.034 nM; ID50 [7]: 15.8 nM; ID50 [8]: 65 nM; ID50 [9]: > 1000 nM |
| CC[C@H](C)[C@@H]1NC(=O)[C@H](CCCCN)NC(=O)[C@@H](NC(=O)[C@H](CCCCN)NC(=O)[C@@H](NC(=O)[C@H](CC(N)=O)NC(=O)[C@@H](NC(=O)[C@@H](NC(=O)[C@@H](NC(=O)CNC(C)=O)C(C)C)[C@@H](C)CC)[C@@H](C)CC)C(C)C)CSSC[C@@H]2NC(=O)[C@H](CCCCN)NC(=O)CNC(=O)[C@H](Cc3ccccc3)NC(=O)[C@H](CCCNC(=N)N)NC(=O)[C@H](CCSC)NC(=O)CNC(=O)[C@H](C)NC(=O)[C@H](CCCCN)NC(=O)[C@H](CCCCN)NC(=O)[C@@H]3CSSC[C@@H](C(=O)N[C@H](C(=O)N4CCC[C@H]4C(=O)N[C@@H](CCCCN)C(N)=O)[C@@H](C)O)NC(=O)[C@H](Cc4c[nH]cn4)NC(=O)[C@H](CSSC[C@H](NC(=O)[C@H](CCC(N)=O)NC(=O)[C@H](CCCNC(=N)N)NC(=O)[C@H](CO)NC1=O)C(=O)N[C@@H](CC(C)C)C(=O)N[C@@H](CCC(=O)O)C(=O)N1CCC[C@H]1C(=O)N3)NC(=O)[C@H](CCCCN)NC(=O)CNC(=O)[C@H](CC(N)=O)NC(=O)[C@H](CCSC)NC2=O [Ac-OsK1-NH2] | 11 µg/kg | > 1000 nM | – | – | – | – | – |
| CC[C@H](C)[C@@H]1NC(=O)[C@H](CCCCN)NC(=O)[C@@H](NC(=O)[C@H](CCCCN)NC(=O)[C@@H](NC(=O)[C@H](CC(N)=O)NC(=O)[C@@H](NC(=O)[C@@H](NC(=O)[C@@H](NC(=O)CN)C(C)C)[C@@H](C)CC)[C@@H](C)CC)C(C)C)CSSC[C@@H]2NC(=O)[C@H](CCCCN)NC(=O)CNC(=O)[C@H](Cc3ccccc3)NC(=O)[C@H](CCCNC(=N)N)NC(=O)[C@H](CCSC)NC(=O)CNC(=O)[C@H](C)NC(=O)[C@H](CC(=O)O)NC(=O)[C@H](CCCCN)NC(=O)[C@@H]3CSSC[C@@H](C(=O)N[C@H](C(=O)N4CCC[C@H]4C(=O)N[C@@H](CCCCN)C(=O)O)[C@@H](C)O)NC(=O)[C@H](Cc4c[nH]cn4)NC(=O)[C@H](CSSC[C@H](NC(=O)[C@H](CCC(N)=O)NC(=O)[C@H](CCCNC(=N)N)NC(=O)[C@H](CO)NC1=O)C(=O)N[C@@H](CC(C)C)C(=O)N[C@@H](CCCCN)C(=O)N1CCC[C@H]1C(=O)N3)NC(=O)[C@H](CCCCN)NC(=O)CNC(=O)[C@H](CC(N)=O)NC(=O)[C@H](CCSC)NC2=O (H-GVIINVKCKISRQCLKPCKDAGMRFGKCMNGKCHCTPK-OH; disulfide 8-28, 14-33, 18-35) | 2.5 µg/kg | > 1000 nM | – | – | – | – | activity on IK1 (in words) [1]: shares the same activity on IK1; activity on Kv1.3 channel (in words) [3]: the most potent Kv1.3 channel blocker characterized so far; potency on the Kv1.3 channel relative to OsK1 ([3]; compared with OsK1): about five times more potent |
| CC[C@H](C)[C@@H]1NC(=O)[C@H](CCCCN)NC(=O)[C@@H](NC(=O)[C@H](CCCCN)NC(=O)[C@@H](NC(=O)[C@H](CC(N)=O)NC(=O)[C@@H](NC(=O)[C@H](CCCCN)NC(=O)[C@@H](NC(=O)CN)C(C)C)[C@@H](C)CC)C(C)C)CSSC[C@@H]2NC(=O)[C@H](CCCCN)NC(=O)CNC(=O)[C@H](Cc3ccccc3)NC(=O)[C@H](CCCNC(=N)N)NC(=O)[C@H](CCSC)NC(=O)CNC(=O)[C@H](C)NC(=O)[C@H](CC(=O)O)NC(=O)[C@H](CCCCN)NC(=O)[C@@H]3CSSC[C@@H](C(=O)N[C@H](C(=O)N4CCC[C@H]4C(=O)N[C@@H](CCCCN)C(N)=O)[C@@H](C)O)NC(=O)[C@H](Cc4c[nH]cn4)NC(=O)[C@H](CSSC[C@H](NC(=O)[C@H](CCC(N)=O)NC(=O)[C@H](CCCNC(=N)N)NC(=O)[C@H](CO)NC1=O)C(=O)N[C@@H](CC(C)C)C(=O)N[C@@H](CCCCN)C(=O)N1CCC[C@H]1C(=O)N3)NC(=O)[C@H](CCCCN)NC(=O)CNC(=O)[C@H](CC(N)=O)NC(=O)[C@H](CCSC)NC2=O (H-GVKINVKCKISRQCLKPCKDAGMRFGKCMNGKCHCTPK-NH2; disulfide 8-28, 14-33, 18-35) | 2.25 µg/kg | > 1000 nM | – | – | – | – | IC50 [1]: > 1000 nM |
| GVIINVKCKISRQCLEPCKKAGMRFGKCMNGKCHCTPK-NH2 (ends and bridges not checked) [OsK1-NH2] | – | – | 26 nM | – | – | – | ID50 [12]: > 1000 nM |
| VIINVKCKISRQCLEPCKKAGMRFGKCMNGKCHCTPK-NH2 (ends and bridges not checked) [[Δ^1]-OsK1-NH2] | – | – | 85 nM | 620 nM | 0.038 nM | 2.06 nM | ID50 [12]: > 1000 nM |
| GVIINVKCKISRQCLKPCKKAGMRFGKCMNGKCHCTPK (ends and bridges not checked; cysteine pairing not given here) [[K^16]-OsK1] | – | – | 5.23 nM | 151 nM | 0.067 nM | 0.63 nM | – |
| GVIINVKCKISRQCLEPCKDAGMRFGKCMNGKCHCTPK (ends and bridges not checked; cysteine pairing not given here) [[D^20]-OsK1] | – | – | 77.8 nM | 716 nM | 0.037 nM | 2.95 nM | – |
